Assays:
Kv1.1 = target: T1, Kv1.1 (Homo sapiens, UniProt Q09470); test: cell-based; format: cell-based; conditions: 100% = no change, <100% = inhibition
T1 construct: host or cells: HEK293 or CHO
Procedure, shortened: (§1)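 Transfected HEK293 or CHO cells were exposed for at least 5 min to peptides at 200 nM and 20 μM final, tested in duplicate, in HEPES-buffered physiological saline. Activation was taken as peptide-plus-agonist current over control current ×100, and inhibition as 1 minus that ratio ×100. Each channel's control was its own reference compound.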

Kv1.3 = target: T2, Kv1.3 (Homo sapiens, UniProt P22001); test: cell-based; format: cell-based; conditions: 100% = no change, <100% = inhibition
T2 construct: host or cells: HEK293 or CHO
T2 sequence (P22001 whole entry): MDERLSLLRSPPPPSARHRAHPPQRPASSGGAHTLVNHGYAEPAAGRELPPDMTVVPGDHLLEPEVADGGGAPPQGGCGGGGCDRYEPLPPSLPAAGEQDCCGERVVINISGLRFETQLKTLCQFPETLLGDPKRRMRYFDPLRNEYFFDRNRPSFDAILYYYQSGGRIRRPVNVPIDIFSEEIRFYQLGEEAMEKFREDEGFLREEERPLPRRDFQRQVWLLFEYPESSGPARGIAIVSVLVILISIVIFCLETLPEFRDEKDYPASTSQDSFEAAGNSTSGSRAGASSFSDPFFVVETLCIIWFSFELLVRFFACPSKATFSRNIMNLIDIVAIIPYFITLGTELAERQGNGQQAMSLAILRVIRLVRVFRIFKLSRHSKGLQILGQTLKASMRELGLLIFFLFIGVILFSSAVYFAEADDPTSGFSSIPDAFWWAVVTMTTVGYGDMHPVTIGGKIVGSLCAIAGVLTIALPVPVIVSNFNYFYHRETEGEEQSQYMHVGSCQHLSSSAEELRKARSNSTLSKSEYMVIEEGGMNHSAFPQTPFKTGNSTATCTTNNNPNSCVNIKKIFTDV
Procedure, shortened: as §1

Kv1.2 = target: T3, Kv1.2 (Homo sapiens, UniProt P16389); test: cell-based; format: cell-based; conditions: 100% = no change, <100% = inhibition
T3 construct: host or cells: HEK293 or CHO
Procedure, shortened: as §1

GABA = test: Ion channel panel (IonWorks Barracuda): GABA; format: cell-based; conditions: 100% = no change, <100% = inhibition
Procedure, shortened: as §1

Kir2.1 = target: T4, Kir2.1 (Homo sapiens, UniProt P63252); test: Ion channel panel (IonWorks Barracuda): Kir2.1; format: cell-based; conditions: 100% = no change, <100% = inhibition
T4 construct: host or cells: HEK293 or CHO
T4 sequence (P63252 whole entry): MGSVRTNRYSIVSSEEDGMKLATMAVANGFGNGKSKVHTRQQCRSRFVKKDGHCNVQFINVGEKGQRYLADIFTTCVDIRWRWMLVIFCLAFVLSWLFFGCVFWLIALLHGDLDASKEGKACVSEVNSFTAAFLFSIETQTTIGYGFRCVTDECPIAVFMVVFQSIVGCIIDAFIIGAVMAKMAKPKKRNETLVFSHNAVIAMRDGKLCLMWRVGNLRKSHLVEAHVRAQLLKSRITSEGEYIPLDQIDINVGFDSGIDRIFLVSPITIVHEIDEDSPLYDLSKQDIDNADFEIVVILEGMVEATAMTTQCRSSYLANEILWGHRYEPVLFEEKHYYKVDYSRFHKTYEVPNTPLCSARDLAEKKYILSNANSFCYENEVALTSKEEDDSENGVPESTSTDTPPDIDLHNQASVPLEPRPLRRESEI
Procedure, shortened: as §1

TRPV1 = target: T5, TRPV1 (Homo sapiens, UniProt Q8NER1); test: Ion channel panel (IonWorks Barracuda): TRPV1; format: cell-based; conditions: 100% = no change, <100% = inhibition
T5 construct: host or cells: HEK293 or CHO
Procedure, shortened: as §1

α4β2 = target: T6, α4β2 (Homo sapiens, UniProt P17787+P43681); test: Ion channel panel (IonWorks Barracuda): α4β2; format: cell-based; conditions: 100% = no change, <100% = inhibition
T6 construct: host or cells: HEK293 or CHO
Procedure, shortened: as §1

5HT3a = target: T7, 5HT3a (Homo sapiens, UniProt P46098); test: Ion channel panel (IonWorks Barracuda): 5HT3a; format: cell-based
T7 construct: host or cells: HEK293 or CHO
T7 sequence (P46098 whole entry, looked up): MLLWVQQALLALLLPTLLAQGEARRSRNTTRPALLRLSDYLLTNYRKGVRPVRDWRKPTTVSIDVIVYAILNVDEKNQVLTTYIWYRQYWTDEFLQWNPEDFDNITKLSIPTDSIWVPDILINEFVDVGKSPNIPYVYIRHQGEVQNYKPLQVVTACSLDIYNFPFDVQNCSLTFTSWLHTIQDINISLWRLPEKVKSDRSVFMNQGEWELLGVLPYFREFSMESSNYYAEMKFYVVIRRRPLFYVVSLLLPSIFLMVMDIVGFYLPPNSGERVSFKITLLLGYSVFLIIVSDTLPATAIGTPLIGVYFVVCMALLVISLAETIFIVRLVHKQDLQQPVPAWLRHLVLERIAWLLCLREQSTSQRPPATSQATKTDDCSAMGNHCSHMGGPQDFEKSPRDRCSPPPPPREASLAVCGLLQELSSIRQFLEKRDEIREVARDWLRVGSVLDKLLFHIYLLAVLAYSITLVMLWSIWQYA
Procedure, shortened: as §1

NR2B = target: T8, NR2B (Homo sapiens, UniProt Q13224); test: Ion channel panel (IonWorks Barracuda): NR2B; format: cell-based; conditions: 100% = no change, <100% = inhibition
T8 construct: host or cells: HEK293 or CHO
Procedure, shortened: as §1

TRPA1 = target: T9, TRPA1 (Homo sapiens, UniProt O75762); test: Ion channel panel (IonWorks Barracuda): TRPA1; format: cell-based; conditions: 100% = no change, <100% = inhibition
T9 construct: host or cells: HEK293 or CHO
Procedure, shortened: as §1

hERG = hERG (Homo sapiens, UniProt Q12809); test: in vitro; conditions: 100% = no change, <100% = inhibition
Procedure, shortened: as §1

Nav1.5 = Nav1.5 (Homo sapiens, UniProt Q14524); test: in vitro; conditions: 100% = no change; for Activity of Nav1.5 with peptide, expressed as a percentage of the reference compound: peptide at 0.2 μM; for Activity of Nav1.5 with peptide (percentage of the reference compound): peptide at 20 μM
Chain of Nav1.5 (Q14524 whole entry): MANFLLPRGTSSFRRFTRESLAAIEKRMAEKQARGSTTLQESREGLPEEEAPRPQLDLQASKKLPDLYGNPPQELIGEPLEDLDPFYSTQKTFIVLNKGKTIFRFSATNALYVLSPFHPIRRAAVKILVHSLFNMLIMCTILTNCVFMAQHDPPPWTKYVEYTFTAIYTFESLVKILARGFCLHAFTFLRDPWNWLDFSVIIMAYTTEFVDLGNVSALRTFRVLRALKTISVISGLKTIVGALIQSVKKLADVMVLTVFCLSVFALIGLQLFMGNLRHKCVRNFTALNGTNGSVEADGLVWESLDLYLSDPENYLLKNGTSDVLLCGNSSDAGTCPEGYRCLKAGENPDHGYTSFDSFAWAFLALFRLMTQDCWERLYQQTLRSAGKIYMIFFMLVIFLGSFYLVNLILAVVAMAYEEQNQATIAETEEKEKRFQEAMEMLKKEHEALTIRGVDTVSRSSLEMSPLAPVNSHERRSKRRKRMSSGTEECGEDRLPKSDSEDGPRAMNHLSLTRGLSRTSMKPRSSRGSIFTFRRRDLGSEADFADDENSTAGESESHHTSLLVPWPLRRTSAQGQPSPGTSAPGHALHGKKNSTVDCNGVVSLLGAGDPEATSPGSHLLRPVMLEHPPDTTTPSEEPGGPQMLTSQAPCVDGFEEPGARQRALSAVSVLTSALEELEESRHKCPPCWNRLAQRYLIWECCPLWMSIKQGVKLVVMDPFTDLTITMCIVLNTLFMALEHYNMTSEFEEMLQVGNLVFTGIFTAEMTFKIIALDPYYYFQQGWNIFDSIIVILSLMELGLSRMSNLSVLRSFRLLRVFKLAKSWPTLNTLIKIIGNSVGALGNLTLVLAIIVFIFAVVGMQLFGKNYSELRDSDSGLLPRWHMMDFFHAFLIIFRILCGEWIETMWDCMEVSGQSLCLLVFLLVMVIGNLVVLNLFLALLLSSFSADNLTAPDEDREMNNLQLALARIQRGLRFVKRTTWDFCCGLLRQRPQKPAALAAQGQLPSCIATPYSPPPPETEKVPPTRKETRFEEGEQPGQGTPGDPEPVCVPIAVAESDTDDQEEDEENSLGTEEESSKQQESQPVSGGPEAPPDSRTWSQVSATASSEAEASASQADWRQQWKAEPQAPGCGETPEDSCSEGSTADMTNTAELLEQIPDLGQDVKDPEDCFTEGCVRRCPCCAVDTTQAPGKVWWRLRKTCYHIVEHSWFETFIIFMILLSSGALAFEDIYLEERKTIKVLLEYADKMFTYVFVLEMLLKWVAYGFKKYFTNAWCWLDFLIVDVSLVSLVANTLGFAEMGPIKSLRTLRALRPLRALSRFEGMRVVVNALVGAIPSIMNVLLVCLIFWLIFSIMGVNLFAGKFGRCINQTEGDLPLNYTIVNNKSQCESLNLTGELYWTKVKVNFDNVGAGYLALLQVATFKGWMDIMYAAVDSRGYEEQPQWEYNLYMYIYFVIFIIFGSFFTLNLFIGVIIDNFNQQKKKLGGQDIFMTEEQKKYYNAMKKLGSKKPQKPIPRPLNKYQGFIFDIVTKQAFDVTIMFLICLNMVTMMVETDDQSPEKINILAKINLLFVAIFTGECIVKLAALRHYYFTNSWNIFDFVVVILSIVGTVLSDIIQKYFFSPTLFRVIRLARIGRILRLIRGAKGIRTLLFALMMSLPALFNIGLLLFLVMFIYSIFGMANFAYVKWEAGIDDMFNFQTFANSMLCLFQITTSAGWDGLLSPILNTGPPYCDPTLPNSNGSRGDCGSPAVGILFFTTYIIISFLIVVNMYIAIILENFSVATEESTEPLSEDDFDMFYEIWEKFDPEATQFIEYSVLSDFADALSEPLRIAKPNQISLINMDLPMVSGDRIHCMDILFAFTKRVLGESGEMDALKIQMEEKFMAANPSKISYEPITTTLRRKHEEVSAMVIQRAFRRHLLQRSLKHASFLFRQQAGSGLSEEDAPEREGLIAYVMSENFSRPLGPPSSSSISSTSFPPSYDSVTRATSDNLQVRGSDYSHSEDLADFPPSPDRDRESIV
Procedure, shortened: as §1

Cav2.1 = target: T10, Cav2.1 (Homo sapiens, UniProt O00555); test: cell-based; conditions: 100% = no change, <100% = inhibition
T10 construct: host or cells: HEK293 or CHO
Procedure, shortened: as §1

Kv2.1 = target: T11, Kv2.1 (Homo sapiens, UniProt Q14721); test: cell-based; conditions: 100% = no change, <100% = inhibition
T11 construct: host or cells: HEK293 or CHO
Procedure, shortened: as §1

Cav2.2 = target: T12, Cav2.2 (Homo sapiens, UniProt Q00975); test: cell-based; conditions: 100% = no change, <100% = inhibition
T12 construct: host or cells: HEK293 or CHO
Procedure, shortened: as §1

NR2A = target: T13, NR2A (Homo sapiens, UniProt Q12879); test: Ion channel panel (IonWorks Barracuda): NR2A; format: cell-based; conditions: 100% = no change, <100% = inhibition
T13 construct: host or cells: HEK293 or CHO
Procedure, shortened: as §1

α3β4 = target: T14, α3β4 (Homo sapiens, UniProt P30926+P32297); test: Ion channel panel (IonWorks Barracuda): α3β4; format: cell-based; conditions: 100% = no change, <100% = inhibition
T14 construct: host or cells: HEK293 or CHO
Procedure, shortened: as §1

Nav1.7 = target: T15, Nav1.7 (Homo sapiens, UniProt Q15858); test: cell-based; format: cell-based; conditions: 100% = no change; for Activity of Nav1.7 with peptide, expressed as a percentage of the reference compound: peptide at 0.2 μM; for Activity of Nav1.7 with peptide (percentage of the reference compound): peptide at 20 μM
T15 construct: host or cells: HEK293 or CHO
T15 sequence (Q15858 whole entry): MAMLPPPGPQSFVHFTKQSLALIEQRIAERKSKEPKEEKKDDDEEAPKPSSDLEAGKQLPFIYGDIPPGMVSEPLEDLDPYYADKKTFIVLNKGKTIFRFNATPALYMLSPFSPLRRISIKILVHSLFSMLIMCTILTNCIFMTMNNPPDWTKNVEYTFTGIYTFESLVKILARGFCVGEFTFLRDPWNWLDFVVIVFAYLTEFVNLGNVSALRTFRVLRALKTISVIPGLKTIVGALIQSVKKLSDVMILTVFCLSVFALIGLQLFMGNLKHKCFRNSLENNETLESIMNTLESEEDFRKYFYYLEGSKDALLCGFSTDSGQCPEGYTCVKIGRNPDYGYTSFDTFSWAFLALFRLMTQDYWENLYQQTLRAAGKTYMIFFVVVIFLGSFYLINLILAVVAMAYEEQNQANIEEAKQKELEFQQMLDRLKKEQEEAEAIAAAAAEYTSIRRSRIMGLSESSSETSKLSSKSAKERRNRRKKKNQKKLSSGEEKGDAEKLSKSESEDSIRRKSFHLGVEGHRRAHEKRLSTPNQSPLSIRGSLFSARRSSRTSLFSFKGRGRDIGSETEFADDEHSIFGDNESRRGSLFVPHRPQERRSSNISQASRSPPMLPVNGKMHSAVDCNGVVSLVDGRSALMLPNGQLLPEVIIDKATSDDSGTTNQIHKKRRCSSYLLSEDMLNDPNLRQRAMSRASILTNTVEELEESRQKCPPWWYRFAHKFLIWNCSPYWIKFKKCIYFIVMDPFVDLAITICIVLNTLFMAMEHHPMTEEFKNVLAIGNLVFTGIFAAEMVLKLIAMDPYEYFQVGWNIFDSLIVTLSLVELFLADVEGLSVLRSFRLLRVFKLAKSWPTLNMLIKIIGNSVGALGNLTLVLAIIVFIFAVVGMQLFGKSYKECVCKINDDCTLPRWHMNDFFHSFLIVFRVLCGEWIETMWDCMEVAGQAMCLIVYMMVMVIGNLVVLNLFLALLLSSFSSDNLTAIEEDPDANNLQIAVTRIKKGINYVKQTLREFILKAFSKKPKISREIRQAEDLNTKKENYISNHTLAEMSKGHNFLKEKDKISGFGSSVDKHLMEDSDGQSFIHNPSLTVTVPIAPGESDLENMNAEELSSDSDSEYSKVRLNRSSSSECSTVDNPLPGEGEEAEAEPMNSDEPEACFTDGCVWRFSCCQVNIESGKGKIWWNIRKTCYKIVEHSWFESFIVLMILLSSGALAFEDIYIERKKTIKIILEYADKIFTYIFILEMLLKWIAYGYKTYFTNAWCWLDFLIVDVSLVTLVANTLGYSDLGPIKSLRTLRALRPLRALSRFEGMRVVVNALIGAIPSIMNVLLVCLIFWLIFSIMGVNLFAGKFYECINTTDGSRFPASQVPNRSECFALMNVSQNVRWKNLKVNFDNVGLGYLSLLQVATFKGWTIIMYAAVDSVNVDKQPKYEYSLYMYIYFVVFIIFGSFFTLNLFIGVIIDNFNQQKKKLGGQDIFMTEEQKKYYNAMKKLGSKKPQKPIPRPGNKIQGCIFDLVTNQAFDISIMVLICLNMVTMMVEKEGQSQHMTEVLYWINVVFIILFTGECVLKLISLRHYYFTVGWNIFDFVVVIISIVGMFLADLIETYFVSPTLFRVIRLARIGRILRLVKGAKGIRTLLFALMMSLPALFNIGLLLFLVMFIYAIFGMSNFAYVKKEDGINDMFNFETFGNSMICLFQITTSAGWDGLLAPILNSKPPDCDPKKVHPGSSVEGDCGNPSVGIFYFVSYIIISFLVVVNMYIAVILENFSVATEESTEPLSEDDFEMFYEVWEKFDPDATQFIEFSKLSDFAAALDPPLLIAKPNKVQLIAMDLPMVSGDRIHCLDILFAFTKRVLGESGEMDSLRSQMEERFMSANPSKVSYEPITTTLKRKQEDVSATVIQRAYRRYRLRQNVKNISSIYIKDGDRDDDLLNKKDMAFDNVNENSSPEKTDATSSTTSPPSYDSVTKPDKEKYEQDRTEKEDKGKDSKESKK

[1] = first of two Nav1.5 columns (probably TP1)
[2] = second of two Nav1.5 columns (probably TP2)
[3] = first of two Nav1.7 columns (probably TP1)
[4] = second of two Nav1.7 columns (probably TP2)

## 15 (GSAVCNLKRCQLSCRSLGLLGKCIGDKCECVKHG) [compound 15]
Kv1.1; peptide at 0.2 μM
  Activity of Kv1.1 with peptide, expressed as a percentage of the reference compound: 69%
Kv1.1; peptide at 20 μM
  Activity of Kv1.1 with peptide (percentage of the reference compound): 72%
Kv1.3; peptide at 0.2 μM
  Activity of Kv1.3 with peptide, expressed as a percentage of the reference compound: 86%
Kv1.3; peptide at 20 μM
  Activity of Kv1.3 with peptide (percentage of the reference compound): 90%
Kv1.2; peptide at 0.2 μM
  Activity of Kv1.2 with peptide, expressed as a percentage of the reference compound: 77%
Kv1.2; peptide at 20 μM
  Activity of Kv1.2 with peptide (percentage of the reference compound): 76%
GABA; peptide at 0.2 μM
  Activity of GABA with peptide, expressed as a percentage of the reference compound: 122%
GABA; peptide at 20 μM
  Activity of GABA with peptide (percentage of the reference compound): 97%
Kir2.1; peptide at 0.2 μM
  Activity of Kir2.1 with peptide, expressed as a percentage of the reference compound: 107%
Kir2.1; peptide at 20 μM
  Activity of Kir2.1 with peptide (percentage of the reference compound): 88%
TRPV1; peptide at 0.2 μM
  Activity of TRPV1 with peptide, expressed as a percentage of the reference compound: 124%
TRPV1; peptide at 20 μM
  Activity of TRPV1 with peptide (percentage of the reference compound): 99%
α4β2; peptide at 0.2 μM
  Activity of a4b2 with peptide, expressed as a percentage of the reference compound: 71%
α4β2; peptide at 20 μM
  Activity of a4b2 with peptide (percentage of the reference compound): 95%
5HT3a
  Activity of 5HT3a with peptide (percentage of the reference compound): 74%
  Activity of 5HT3a with peptide, expressed as a percentage of the reference compound: 86%
NR2B; peptide at 0.2 μM
  Activity of NR2B with peptide, expressed as a percentage of the reference compound: 103%
NR2B; peptide at 20 μM
  Activity of NR2B with peptide (percentage of the reference compound): 88%
TRPA1; peptide at 0.2 μM
  Activity of TRPA1 with peptide, expressed as a percentage of the reference compound: 114%
TRPA1; peptide at 20 μM
  Activity of TRPA1 with peptide (percentage of the reference compound): 76%
hERG; peptide at 0.2 μM
  Activity of hERG with peptide, expressed as a percentage of the reference compound: 79%
hERG; peptide at 20 μM
  Activity of hERG with peptide (percentage of the reference compound): 67%
Nav1.5; [1]
  Activity of Nav1.5 with peptide, expressed as a percentage of the reference compound: 90%
  Activity of Nav1.5 with peptide (percentage of the reference compound): 78%
Nav1.5; [2]
  Activity of Nav1.5 with peptide, expressed as a percentage of the reference compound: 91%
  Activity of Nav1.5 with peptide (percentage of the reference compound): 79%
Cav2.1; peptide at 0.2 μM
  Activity of Cav2.1 with peptide, expressed as a percentage of the reference compound: 106%
Cav2.1; peptide at 20 μM
  Activity of Cav2.1 with peptide (percentage of the reference compound): 86%
Kv2.1; peptide at 0.2 μM
  Activity of Kv2.1 with peptide, expressed as a percentage of the reference compound: 91%
Kv2.1; peptide at 20 μM
  Activity of Kv2.1 with peptide (percentage of the reference compound): 88%
Cav2.2; peptide at 0.2 μM
  Activity of Cav2.2 with peptide, expressed as a percentage of the reference compound: 105%
Cav2.2; peptide at 20 μM
  Activity of Cav2.2 with peptide (percentage of the reference compound): 106%
NR2A; peptide at 0.2 μM
  Activity of NR2A with peptide, expressed as a percentage of the reference compound: 97%
NR2A; peptide at 20 μM
  Activity of NR2A with peptide (percentage of the reference compound): 76%
α3β4; peptide at 0.2 μM
  Activity of a3b4 with peptide, expressed as a percentage of the reference compound: 91%
α3β4; peptide at 20 μM
  Activity of a3b4 with peptide (percentage of the reference compound): 86%
Nav1.7; [3]
  Activity of Nav1.7 with peptide, expressed as a percentage of the reference compound: 91%
  Activity of Nav1.7 with peptide (percentage of the reference compound): 75%
Nav1.7; [4]
  Activity of Nav1.7 with peptide, expressed as a percentage of the reference compound: 97%
  Activity of Nav1.7 with peptide (percentage of the reference compound): 58%

Reference: patent US20200262877A1, “ION CHANNEL-BINDING PEPTIDES AND METHODS OF USE THEREOF” (priority 2017, published 2020)
